# Data: patent publication US20170252327A1, “Methods of Modulating Gastrointestinal Tract Flora Levels with Alkaline Phosphatase” (priority 2008, published 2017)
# “Also recorded” adds a separate entry of the source.
# B1: calf intestinal alkaline phosphatase (protein, UniProt P19111 20-506, looked up)
# Intestinal-type alkaline …: LVPVEEEDPAFWNRQAAQALDVAKKLQPIQTAAKNVILFLGDGMGVPTVTATRILKGQMNGKLGPETPLAMDQFPYVALSKTYNVDRQVPDSAGTATAYLCGVKGNYRTIGVSAAARYNQCKTTRGNEVTSVMNRAKKAGKSVGVVTTTRVQHASPAGAYAHTVNRNWYSDADLPADAQMNGCQDIAAQLVNNMDIDVILGGGRKYMFPVGTPDPEYPDDASVNGVRKRKQNLVQAWQAKHQGAQYVWNRTALLQAADDSSVTHLMGLFEPADMKYNVQQDHTKDPTLQEMTEVALRVVSRNPRGFYLFVEGGRIDHGHHDDKAYMALTEAGMFDNAIAKANELTSELDTLILVTADHSHVFSFGGYTLRGTSIFGLAPSKALDSKSYTSILYGNGPGYALGGGSRPDVNDSTSEDPSYQQQAAVPQASETHGGEDVAVFARGPQAHLVHGVEEETFVAHIMAFAGCVEPYTDCNLPAPTTATSIPD
# notes: calf intestinal alkaline phosphatase enzyme (Sigma)
# Key:
# [1] = test system: gut microbiota; experiment: Restoration of gut flora after ampicillin treatment with or without cIAP (stool culture in LB media); format: in vivo, mice (C57BL/6)
# Protocol: An experiment was performed in which five mice (C57BL/6) of each test group, approximately 6 weeks old, were treated with 1 mg/ml of the antimicrobial drug ampicillin, in the presence or absence of calf intestinal alkaline phosphatase (cIAP) (New England Biolabs, Ipswich, Mass.). Ampicillin was administered orally with the animal's drinking water at a concentration of 1 mg/ml, and 250 units of cIAP were administered twice daily as oral gavage. Individual stool samples of each group were cultured in LB media each day and analyzed for the presence/absence of the gut flora. The gut flora of mice before receiving the antibiotic was considered as a baseline control for normal gastrointestinal tract flora (present in all samples). […] Both treatment groups received ampicillin for 10 days.
# [2] = format: physicochemical; conditions: 24 h
# Protocol: IAP activity was determined following the protocol as described by Baykov et al. (Anal Biochem, 171:266, 1988). Briefly, individual stool samples were homogenized in water (10 mg/100 μl), centrifuged and supernatant was collected. Then 25 μl of the stool supernatant (or aqueous cIAP solution) were mixed with 175 μl phosphatase assay reagent containing 5 mM of p-nitrophenyl phosphate (pNPP) followed by determining optical density at 405 nm after a specific time period when the samples usually turned yellow due to release of p-nitrophenol. Protein concentrations of stool supernatants were measured using a kit from Bio-Rad Laboratories (Hercules, Calif.). The specific activity of the enzyme, expressed as pmole pNPP hydrolyzed per minute per μg of protein, and CFU per gm of stool +/− SEM were determined and the results are shown in FIG. 3. As expected, IAP activity is lower in hypothyroid animals (Weeks 6-32, FIG. 3A) as compared to the euthyroid animals (Week 0, FIG. 3A). […] At Week 32 the IAP activity in hyperthyroid animals was approximately 7-fold higher compared to euthyroid animals and 15-fold higher compared to hypothyroid animals. […] On the other hand the fecal bacterial counts in hyperthyroid animals continued to gradually increase, being the highest at Week 32 when the experiment was terminated (FIGS. 3B, 3C, and 3D). […]
# [3] = test system: gut microbiota; experiment: Restoration of gut flora after streptomycin treatment with or without cIAP (stool culture in LB media); format: in vivo, mice (C57BL/6)
# Protocol: To address the role of intestinal alkaline phosphatase on the gastrointestinal tract flora of mammals, an experiment was performed in which five approximately six week old mice (C57BL/6) of each test group were treated with an antimicrobial drug, streptomycin, in the presence or absence of calf intestinal alkaline phosphatase (cIAP) (Sigma, St. Louis, Mo.). Both streptomycin (5 mg/ml) and cIAP (50 units/ml) were administered orally with the animal's drinking water. Individual stool samples of each group were cultured in LB media each day and analyzed for the presence/absence of gut flora. The gastrointestinal tract flora of mice before antibiotic treatment was considered as a baseline control for the normal gut flora (present in all samples).
# [4] = test system: streptomycin-resistant E. coli; experiment: Survival of gavaged commensal E. coli in IAP-KO mice given oral cIAP; format: in vivo; conditions: oral supplementation of cIAP
# Source text: Two groups of IAP-KO animals (n=6) were put on drinking water containing cIAP or ‘vehicle for cIAP.’ On Day 2, animals were gavaged with 20,000 CFU of streptomycin-resistant E. coli, which is a commensal bacterium isolated from the stool of a WT mouse, and the presence of streptomycin-resistant E. coli in the stools of these animals was closely monitored. As only a few animals carried E. coli in their stools (FIG. 4B), the animals were gavaged with another dose of 50,000 CFU of E. coli on Day 5, however, again only a few animals shed E. coli in their stools. On Day 8, most of the animals of either group carried no E. coli in their stools. Supplementation of cIAP was stopped and the animals were treated with streptomycin for 3 days, which should kill most of the native flora, but would allow proliferation of the surviving streptomycin-resistant E. coli.
# [5] = test system: streptomycin-resistant S. typhimurium; experiment: Growth of Salmonella typhimurium in streptomycin-treated WT mice with or without cIAP; format: in vivo; conditions: for Growth of pathogenic S. typhimurium: cIAP in the drinking water
# Protocol: Restoration or maintenance of the normal gastrointestinal tract flora by IAP was postulated to inhibit infection by pathogenic bacteria because pathogenic bacteria would likely face competition for ‘food and shelter’ (e.g., nutrition, epithelial attachment sites, space, etc.) and antibacterial factors produced by commensal organisms. Accordingly, groups of WT mice (n=5) were treated with streptomycin (5 mg/ml) for 3 days, followed by oral gavage of 500,000 CFU of streptomycin-resistant S. typhimurium in the presence of cIAP (200 U/ml for cIAP^+ Group) or absence of cIAP (20 μl /ml ‘vehicle for cIAP’ (50 mM KCl, 10 mM Tris-HCl (pH 8.2), 1 mM MgCl2, 0.1 mM ZnCl2, and 50% glycerol) in drinking water for control cIAP^− Group). The presence of S. typhimurium was monitored in the stools of these animals by plating stools on Hektoen plates containing streptomycin (100 μg/ml).
# [6] = test system: streptomycin-resistant E. coli; experiment: Colonization of E. coli in antibiotic-treated WT mice supplemented with cIAP; format: in vivo; conditions: WT mice after streptomycin and ciprofloxacin, p<0.015
# Protocol: To determine the temporal effects of IAP on the restoration of commensal gut flora, groups of WT animals (n=6) were treated with streptomycin (5 mg/ml) and ciprofloxacin (0.5 mg/ml) for three days followed by oral gavage of small doses (20,000 CFU) of streptomycin-resistant E. coli for two alternate days (FIG. 4C; Day 0 and Day 2) in the presence or absence of cIAP.
# [7] = test system: Gram-negative bacteria (mostly E. coli); experiment: Restoration of commensal Gram-negative gut flora in streptomycin-treated WT mice with or without cIAP (MacConkey agar); format: in vivo; conditions: for Number of animals with commensal Gram-negative bacteria / restoration of gut flora, cIAP+ vs cIAP- Group: after streptomycin for three days, cIAP 200 U/ml, p<0.00004
# Protocol: Accordingly, experiments were performed in which groups of WT mice (n=10) were treated orally with the antibiotic streptomycin in the presence or absence of cIAP. Streptomycin (5 mg/ml) and cIAP (200 U/ml for cIAP^+ Group, n=5) or ‘vehicle for cIAP’ (20 μl/ml ‘vehicle for cIAP’ (50 mM KCl, 10 mM Tris-HCl (pH 8.2), 1 mM MgCl, 0.1 mM ZnCl2, and 50% glycerol) in drinking water for control cIAP^− Group, n=5) were administered in the animals' drinking water and fecal cultures were performed.
# Individual stool samples were cultured each day on MacConkey agar media. […] After discontinuation of antibiotic treatment, the time of appearance (Day) of Gram-negative bacteria (mostly E. coli, occasionally P. mirabilis) in stool samples was recorded for each animal. The experiment was repeated six times, which raised the total number of animals in each group to 39 (n=39), however, duration of each experiment varied (7-35 days). Data was compiled from all six experiments and the number of animals with E. coli in each group on a specific day was recorded.
molecule,measurement,setting,value
B1,Gut flora of mice receiving only cIAP,"[1]; 250 units cIAP twice daily oral gavage, no ampicillin",normal gut flora phenotype; also recorded: did not affect normal gut flora
same,Effect of cIAP on time for restoring the normal gut flora,[1]; with ampicillin,significantly reduced the time for restoring the normal gut flora
same,cIAP enzymatic activity remaining,[2],approximately 80%
same,Gut flora of mice receiving only cIAP,"[3]; cIAP 50 units/ml in drinking water, no streptomycin",normal gut flora phenotype; also recorded: did not affect normal gut flora
same,Effect of cIAP on reestablishment of normal gut flora,[3]; co-administered with streptomycin throughout the treatment period,significantly enhanced the early reestablishment of normal gut flora
same,Survival of E. coli in IAP-KO mice,[4],can survive
same,Survival of E. coli in IAP-KO mice,[4]; listed as IAP,favors survival of E. coli
same,"Salmonella count, less than in cIAP- Group","[5]; cIAP 200 U/ml in drinking water, p<0.001",approximately 4 log
same,Growth of pathogenic S. typhimurium,[5],dramatically inhibited
same,Growth of pathogenic S. typhimurium,[5]; listed as IAP,inhibits Salmonella typhimurium infection
same,Colonization of E. coli,[6],temporal enhancement of colonization of E. coli
same,Colonization of E. coli,[6]; listed as IAP,temporal enhancement of E. coli colonization
same,"Number of animals with commensal Gram-negative bacteria / restoration of gut flora, cIAP+ vs cIAP- Group",[7],much higher
same,"Number of animals with commensal Gram-negative bacteria / restoration of gut flora, cIAP+ vs cIAP- Group",[7]; listed as IAP,enhances the restoration of antibiotic-associated loss of gut flora
same,Day at the end of which all animals showed E. coli in their stools,"[7]; cIAP+ Group, after discontinuation of streptomycin",3 days
